The results in this text go back to paper PMC3017119, “Structural Basis for the Recognition of Cellular mRNA Export Factor REF by Herpes Viral Proteins HSV-1 ICP27 and HVS ORF57” (PLoS Pathogens, 2011).

Sequences and labels used below:
B1: unnamed (parent)
chain 1: MATDIDMLIDLGLDLSDSDLDEDPPEPAESRRDDLESDSSGECSSSDEDMEDPHGEDGPEPILDAARPAVRPSRPEDPGVPSTQTPRPTERQGPNDPQPAPHSVWSRLGARRPSCSPEQHGGKVARLQPPPTKAQPARGGRRGRRRGRGRGGPGAADGLSDPRRRAPRTNRNPGGPRPGAGWTDGPGAPHGEAWRGSEQPDPPGGQRTRGVRQAPPPLMTLAIAPPPADPRAPAPERKAPAADTIDATTRLVLRSISERAAVDRISESFGRSAQVMHDPFGGQPFPAANSPWAPVLAGQGGPFDAETRRVSWETLVAHGPSLYRTFAGNPRAASTAKAMRDCVLRQENFIEALASADETLAWCKMCIHHNLPLRPQDPIIGTTAAVLDNLATRLRPFLQCYLKARGLCGLDELCSRRRLADIKDIASFVFVILARLANRVERGVAEIDYATLGVGVGEKMHFYLPGACMAGLIEILDTHRQECSSRVCELTASHIVAPPYVHGKYFYCNSLF
chain 2: not shown

Variants of B1 are the subject of this test. The test can be described thus: co-immunoprecipitation with densitometry of Western blot. The conditions noted are these: 293T cells transfected with GFP-tagged ICP27 and its mutants, IP with polyclonal GFP-specific antibody and Protein A agarose, 3 independent experiments, read off a plot, scale: relative binding normalised against GFP control.
As to chain 1 R107A L108A, the response is 0.37.
Consider chain 1 W105A R107A L108A, for which the response was found to be 0.3.
On to chain 1 W105A, for which the response was determined as 0.32.
